Test results taken from patent US20260266848A1, “COMPOSITIONS AND METHODS FOR DIAGNOSING AND TREATING DYSTONIA” (Duke University, priority 2023, published 2026).

B1: Mtap (protein, UniProt Q9CQ65 1-283, looked up)
S-methyl-5'-thioadenosine …: MASGSACTAVKIGIIGGTGLDDPEILEGRTEKYVDTPFGKPSDALILGKIKNVDCVLLARHGRQHTIMPSKVNYQANIWALKEEGCTHVIVTTACGSLREEIQPGDMVIIDQFIDRTSLRPQTFYDGSHCSARGVCHIPMAEPFCPKTREVLIETAKKLGLRCHSKGTIVTIEGPRFSSRAESLIFRTWGADVVNMTTVPEVVLAKEAGICYASIAMATDYDCWKEHEEAVSVDGVLKTMKENANKAKSLLLTTIPQIGSMEWSETLRNLKNMAQFSVLPPRH
B2: Itgb5 (protein, UniProt O70309 24-798, looked up)
Integrin beta-5: GLNICTSGSATSCEECLLIHPKCAWCSKEYFGNPRSITSRCDLKANLIRNGCEGEIESPASSTHVLRNLPLSSKGSSATGSDVIQMTPQEIAVSLRPGEQTTFQLQVRQVEDYPVDLYYLMDLSLSMKDDLENIRSLGTKLAEEMRKLTSNFRLGFGSFVDKDISPFSYTAPRYQTNPCIGYKLFPNCVPSFGFRHLLPLTDRVDSFNEEVRKQRVSRNRDAPEGGFDAVLQAAVCKEKIGWRKDALHLLVFTTDDVPHIALDGKLGGLVQPHDGQCHLNEANEYTASNQMDYPSLALLGEKLAENNINLIFAVTKNHYMLYKNFTALIPGTTVEILHGDSKNIIQLIINAYSSIRAKVELSVWDQPEDLNLFFTATCQDGISYPGQRKCEGLKIGDTASFEVSVEARSCPGRQAAQSFTLRPVGFRDSLQVEVAYNCTCGCSTGLEPNSARCSGNGTYTCGLCECDPGYLGTRCECQEGENQSGYQNLCREAEGKPLCSGRGECSCNQCSCFESEFGRIYGPFCECDSFSCARNKGVLCSGHGECHCGECKCHAGYIGDNCNCSTDVSTCKAKDGQICSDRGRCVCGQCQCTEPGAFGETCEKCPTCPDACSSKRDCVECLLLHQGKPDNQTCHHQCKDEVITWVDTIVKDDQEAVLCFYKTAKDCVMMFSYTELPNGRSNLTVLREPECGSAPNAMTILLAVVGSILLIGMALLAIWKLLVTIHDRREFAKFQSERSRARYEMASNPLYRKPISTHTVDFAFNKFNKSYNGSV
B3: Efemp1 (protein, UniProt Q8BPB5 18-493, looked up)
EGF-containing fibulin-like …: QYTEETITYTQCTDGYEWDPIRQQCKDIDECDIVPDACKGGMKCVNHYGGYLCLPKTAQIIVNNEHPQQETPAAEASSGATTGTVAARSMATSGVVPGGGFMASATAVAGPEVQTGRNNFVIRRNPADPQRIPSNPSHRIQCAAGYEQSEHNVCQDIDECTSGTHNCRTDQVCINLRGSFTCQCLPGYQKRGEQCVDIDECTVPPYCHQRCVNTPGSFYCQCSPGFQLAANNYTCVDINECDASNQCAQQCYNILGSFICQCNQGYELSSDRLNCEDIDECRTSSYLCQYQCVNEPGKFSCMCPQGYEVVRSRTCQDINECETTNECREDEMCWNYHGGFRCYPRNPCQDHYVLTSENRCVCPVSNTMCRELPQSIVYKYMSIRSDRSVPSDIFQIQATMIYANTINTFRIKSGNENGEFYLRQTSPVSAMLVLVKSLSGPREYIVDLEMLTVSSIGTFRTSSVLRLTIIVGPFSF
B4: Mri1 (protein, UniProt Q9CQT1 1-369, looked up)
Methylthioribose-1-phosphate …: MTLEAIRYSPGSLQILDQLQLPEHCHYEALSSVQQASEAIRAMKVRGAPAIALVGCLSLAVELRAGAGGPGLAALVAFVRDQLRLLVAARPTAVNMARAARDLGQVAAQEAEREGATEETVRERVIRFAEDMLEKDLKDNRSIGDLGARHLLEQTNPRGGKVTVLTHCNTGALATAGYGTALGVIRSLHEMGRLEHTFCTETRPYNQGARLTAFELVYEQIPATLITDSMAAAAMAHRGVSAVVVGADRVVANGDTANKIGTYQLAIVAKHHGVPFYVAAPSSSCDLHLETGKEIVIEERPSQELTDLNGVRIAAQGIRVWNPAFDVTPHELITGGIITELGVFAPEELRGALSASVFSEGQTLDSPWV
B5: Atp6v1h (protein, UniProt Q8BVE3 1-483, looked up)
V-type proton ATPase subunit H: MTKMDIRGAVDAAVPTNIIAAKAAEVRANKVNWQSYLQGQMISAEDCEFIQRFEMKRSSEDKQEMLQTEGSQCAKTFINLMTHISKEQTVQYILTMVDDMLQENHQRVSIFFDYAKRSKSTAWPYFLPMLNRQDPFTVHMAARIIAKLAAWGKELMEGSDLNYYFNWIKTQLSSQKLRGSGVAVETGTISSSDSSQYVQCVAGCLQLMLRVNEYRFAWVEADGVNCIMGVLSNKCGFQLQYQMIFSIWLLAFSPQMCEHLRRYNIIPVLSDILQESVKEKVTRIILAAFRNFLEKSTERETRQEYALAMIQCKVLKQLENLEQQKYDDEDISEDIKFLLEKLGESVQDLSSFDEYSSELKSGRLEWSPVHKSEKFWRENAVRLNEKNYELLKILTKLLEVSDDPQVLAVAAHDVGEYVRHYPRGKRVIEQLGGKQLVMNHMHHEDQQVRYNALLAVQKLMVHNWEYLGKQLQSEQPQTAAARS
B6: Sec31a (protein, UniProt Q3UPL0 1-1230, looked up)
Protein transport protein …: MKLKEIDRTAMQAWSPAQNHPIYLATGTSAQQLDATFSTNASLEIFELDLSDPSLDMKSCATFSSSHRYHKLIWGPHKMDSKGDVSGVLIAGGENGNIILYDPSKIIAGDKEVVIAQKDKHTGPVRALDVNIFQTNLVASGANESEIYIWDLNNFATPMTPGAKTQPPEDISCIAWNRQVQHILASASPSGRATVWDLRKNEPIIKVSDHSNRMHCSGLAWHPDVATQMVLASEDDRLPVIQMWDLRFASSPLRVLENHARGILAVAWSMADPELLLSCGKDAKILCSNPNTGEVLYELPTNTQWCFDIQWCPRNPAVLSAASFDGRISVYSIMGGSIDGLRQKQVDKLSSSFGNLDPFGTGQPLPPLQIPQQSAQHSIVLPLKKPPKWIRRPVGASFSFGGKLVTFESVAVPLQQGAEQQRRQPVFISQVVTEKDFLNRSAQLQHAVQSQGFIGYCQKKIEASQTEFEKNVWSFLKVNFEEDSRGKYLELLGYRKEDLGQKIALALNKVDGPDVALKDSDQVAQSDGEESPAAEEQLLGERIKEEKQECDFLPSAGGTFNISVSGDIDGLITRALLTGNFESAVDLCLHDNRMADAIILAIAGGQELLAQTQKKYFAKSQSKITRLITAVVMKNWREIVESCDLKNWREALAAVLTYAKPDEFSALCDLLGTRLEREGDSLLRTQACLCYICAGNVERLVACWTKAQDGSSPLSLQDLIEKVVILRKAVQLTQALDTNTVGALLAEKMSQYASLLAAQGSIAAALAFLPDNTNQPNIVQLRDRLCKAQGKPVSGQESSQSPYERQPLSKGRPGPVAGHSQMPRVQTQQYYPHGENPPPPGFIMQGNVIPNPAAPLPTAPGHMPSQLPPYPQPQPYQPAQQYSFGTGGAAAYRPQQPVAPPASNAYPNTPYISPVASYSGQPQMYTAQQASSPTSSSAASFPPPSSGASFQHGGPGAPPSSSAYALPPGTTGTPPAASELPASQRTENQSFQDQASILEGPQNGWNDPPALNRVPKKKKMPENFMPPVPITSPIMNPSGDPQSQGLQQQPSTPGPLSSHASFPQQHLAGGQPFHGVQQPLAQTGMPPSFSKPNTEGAPGAPIGNTIQHVQALPTEKITKKPIPEEHLILKTTFEDLIQRCLSSATDPQTKRKLDDASKRLEFLYDKLREQTLSPTIINGLHSIARSIETRNYSEGLSVHTHIVSTSNFSETSAFMPVLKVVLSQASKLGV
B7: Hsd17b4 (protein, UniProt P51660 1-735, looked up)
Peroxisomal multifunctional …: MASPLRFDGRVVLVTGAGGGLGRAYALAFAERGALVIVNDLGGDFKGIGKGSSAADKVVAEIRRKGGKAVANYDSVEAGEKLVKTALDTFGRIDVVVNNAGILRDRSFSRISDEDWDIIHRVHLRGSFQVTRAAWDHMKKQNYGRILMTSSASGIYGNFGQANYSAAKLGILGLCNTLAIEGRKNNIHCNTIAPNAGSRMTETVLPEDLVEALKPEYVAPLVLWLCHESCEENGGLFEVGAGWIGKLRWERTLGAIVRKRNQPMTPEAVRDNWEKICDFSNASKPQTIQESTGGIVEVLHKVDSEGISPNRTSHAAPAATSGFVGAVGHKLPSFSSSYTELQSIMYALGVGASVKNPKDLKFVYEGSADFSCLPTFGVIVAQKSMMNGGLAEVPGLSFNFAKALHGEQYLELYKPLPRSGELKCEAVIADILDKGSGVVIVMDVYSYSGKELICYNQFSVFVVGSGGFGGKRTSEKLKAAVAVPNRPPDAVLRDATSLNQAALYRLSGDWNPLHIDPDFASVAGFEKPILHGLCTFGFSARHVLQQFADNDVSRFKAIKVRFAKPVYPGQTLQTEMWKEGNRIHFQTKVHETGDVVISNAYVDLVPASGVSTQTPSEGGELQSALVFGEIGRRLKSVGREVVKKANAVFEWHITKGGTVAAKWTIDLKSGSGEVYQGPAKGSADVTIIISDEDFMEVVFGKLDPQKAFFSGRLKARGNIMLSQKLQMILKDYAKL

Experiments:
[1] = system: DYT-TOR1A MEF EVs; assay: Quantitative LC-MS/MS proteomics of EVs from drug-treated DYT-TOR1A MEF cultures (ritonavir, salubrinal); format: cell-based, mouse; parameters: key to RTV Corrective Direction / RTV Corrective Direction, Grwd1 / RTV Corrective Direction, Srrm2 / RTV Corrective Direction, Rbm17 / RTV Corrective Direction, Dcaf8 / RTV Corrective Direction, Edil3 / RTV Corrective Direction, Timp3 / RTV Corrective Direction, Heatr3 / RTV Corrective Direction, Brd4 / RTV Corrective Direction, P3h4 / RTV Corrective Direction, Pacsin3 / RTV Corrective Direction, Naa50 / RTV Corrective Direction, Lpar6 / RTV Corrective Direction, Ndrg1 / RTV Corrective Direction, Kntc1 / RTV Corrective Direction, Cdk11b / RTV Corrective Direction, Sumo1 / RTV Corrective Direction, Lsm4 / RTV Corrective Direction, Hmga2 / RTV Corrective Direction, Cstf1 / RTV Corrective Direction, Tes / RTV Corrective Direction, Sbno1 / RTV Corrective Direction, Unc119b / RTV Corrective Direction, Cfdp1 / RTV Corrective Direction, Sec61b: YES = protein abundance effect opposite to DYT/WT; conditions: EV protein abundance; for RTV Corrective Direction: DYT + RTV (ritonavir) vs DYT, direction compared with DYT/WT; for DYT + RTV/DYT Cohen's d: ritonavir (RTV)-treated DYT vs DYT
[2] = system: WT MEF EVs; assay: Quantitative LC-MS/MS proteomics of EVs from ISRIB-treated WT MEF cultures; format: cell-based, mouse; parameters: key to ISRIB and DYT Parallel Direction / ISRIB and DYT Parallel Direction, Ctdsp1 / ISRIB and DYT Parallel Direction, Pcdh19 / ISRIB and DYT Parallel Direction, Tspan7 / ISRIB and DYT Parallel Direction, Myo1e / ISRIB and DYT Parallel Direction, Plpp3 / ISRIB and DYT Parallel Direction, Sh3bp4 / ISRIB and DYT Parallel Direction, Dnajc7 / ISRIB and DYT Parallel Direction, Drg1 / ISRIB and DYT Parallel Direction, Maea: YES = protein abundance effect similar to DYT/WT; conditions: EV protein abundance; for WT + ISRIB/WT Cohen's d: ISRIB-treated WT vs WT; for ISRIB and DYT Parallel Direction: WT + ISRIB vs WT, direction compared with DYT/WT

Molecule | RTV Corrective Direction [1] | DYT + RTV/DYT Cohen's d [1] | WT + ISRIB/WT Cohen's d [2] | ISRIB and DYT Parallel Direction [2]
B1 | YES | 3.50 | −0.85 | YES
B2 | YES | −4.69 | 1.22 | YES
B3 | YES | −4.60 | 0.07 | YES
B4 | YES | 5.85 | −0.01 | YES
B5 | YES | 4.82 | −0.66 | YES
B6 | YES | 5.50 | −1.34 | YES
B7 | YES | 4.01 | −2.20 | YES
